Experimental data: publication PMC4250405

Molecular target: taxol-stabilized microtubules (UniProt Q6B856)
Assay: optical trap bead assay

p150^Glued fragment p150 1-555 (from UniProt P28023 1-555) (domain or fragment)
MT binding time of diffusive beads: 54.3 s
